“Also recorded” adds a separate entry of the source.
B1: 2F5: human monoclonal anti-PSMA antibody, VH SEQ ID NO: 3, VL SEQ ID NO: 7 (antibody, listed as Homo sapiens, V domains shown)
VH: EVQLVQSGAEVKKPGESLKISCKGSGYSFTSNWIGWVRQMPGKGLEWMGIIYPGDSDTRYSPSFQGQVTISADKSISTAYLQWNSLKASDTAMYYCARQTGFLWSFDLWGRGTLVTVSS
VL: AIQLTQSPSSLSASVGDRVTITCRASQDISSALAWYQQKPGKAPKLLIYDASSLESGVPSRFSGSGSGTDFTLTISSLQPEDFATYYCQQFNSYPLTFGGGTKVEIKIK
B2: 2C6: human monoclonal anti-PSMA antibody, VH SEQ ID NO: 4, VL SEQ ID NO: 8 (antibody, listed as Homo sapiens, V domains shown)
VH: EVQLVQSGSEVKKPGESLKISCKGSGYSFTNYWIGWVRQMPGKGLEWMGIIYPGDSDTRYSPSFQGQVTISADKSISTAYLQWSSLKASDTAMYYCASPGYTSSWTSFDYWGQGTLVTVSS
VL: EIVLTQSPATLSLSPGERATLSCRASQSVSSYLAWYQQKPGQAPRLLIYDASNRATGIPARFSGSGSGTDFTLTISSLEPEDFAVYYCQQRSNWPLFTFGPGTKVDIK
B3: 1C3: human monoclonal anti-PSMA antibody, VH SEQ ID NO: 1, VL SEQ ID NO: 5 (antibody, listed as Homo sapiens, V domains shown)
VH: QVQLVESGGGVVQPGRSLRLSCAASGFTFSSYAMHWVRQAPGKGLEWVAVISYDGNNKYYADSVKGRFTISRDNSKNTLYLQMNSLRAEDTAVYYCARAVPWGSRYYYYGMDVWGQGTTVTVSS
VL: AIQLTQSPSSLSASVGDRVTITCRASQGISSALAWYQQKSGKAPKLLIFDASSLESGVPSRFSGSGSGTDFTLTISSLQPEDFATYYCQQFNSYPLTFGGGTKVEIK

Assays:
[1] = biological target: T1, PSMA immunopurified from LNCaP cells (Homo sapiens, UniProt Q04609); assay: Binding specificity by ELISA; conditions: antibody from 5 μg/ml, 1:2 serial dilutions
T1 construct: endogenous in cells; host or cells: LNCaP cells (protein immunopurified from them)
T1 sequence (Q04609 whole entry): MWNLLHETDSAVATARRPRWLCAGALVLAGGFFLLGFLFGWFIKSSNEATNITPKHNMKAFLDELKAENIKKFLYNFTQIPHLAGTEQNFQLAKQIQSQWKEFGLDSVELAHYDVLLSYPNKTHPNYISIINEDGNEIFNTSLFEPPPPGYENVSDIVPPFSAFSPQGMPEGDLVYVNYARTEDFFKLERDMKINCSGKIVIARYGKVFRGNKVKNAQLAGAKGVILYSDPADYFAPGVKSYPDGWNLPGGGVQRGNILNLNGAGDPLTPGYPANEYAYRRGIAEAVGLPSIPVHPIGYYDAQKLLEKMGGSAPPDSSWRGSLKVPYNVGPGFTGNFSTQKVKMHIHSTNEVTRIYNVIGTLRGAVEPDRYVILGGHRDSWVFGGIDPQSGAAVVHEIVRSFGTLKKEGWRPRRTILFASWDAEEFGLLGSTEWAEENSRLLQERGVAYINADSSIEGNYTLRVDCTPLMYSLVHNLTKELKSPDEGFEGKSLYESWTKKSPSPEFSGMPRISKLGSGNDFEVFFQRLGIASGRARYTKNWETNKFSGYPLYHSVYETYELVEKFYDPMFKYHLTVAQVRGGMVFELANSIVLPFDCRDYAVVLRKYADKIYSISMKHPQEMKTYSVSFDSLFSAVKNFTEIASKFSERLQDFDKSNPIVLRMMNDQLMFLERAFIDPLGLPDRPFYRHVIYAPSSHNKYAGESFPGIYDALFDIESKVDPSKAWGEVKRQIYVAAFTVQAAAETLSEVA
Procedure: A comparison of anti-PSMA antibodies on binding to immunopurified PSMA was performed by standard ELISA to examine the specificity of binding for PSMA.
PSMA was immunopurified from LNCaP cells and tested for binding against the anti-PSMA human monoclonal antibodies 1C3, 2A10, 2F5, and 2C6. Standard ELISA procedures were performed. The anti-PSMA human monoclonal antibodies were added at a concentration of 5 μg/ml and titrated down at 1:2 serial dilutions. Goat-anti-human IgG (kappa chain-specific) polyclonal antibody conjugated with horseradish peroxidase (HRP) was used as secondary antibody. The human anti-PSMA monoclonal antibody 7F12 was used as a positive control and a blank was used as a negative control.

[2] = biological target: T2, PSMA-expressing LNCaP cells (Homo sapiens, UniProt Q04609); assay: Binding specificity by flow cytometry; conditions: FITC-labeled anti-human IgG detection, different antibody concentrations
T2 construct: host or cells: LNCaP human prostate cancer cells
T2 sequence (Q04609 whole entry): as above
Procedure: The human PSMA-expressing prostate cancer cell line LNCaP was used to determine the specificity of anti-PSMA human monoclonal antibodies by flow cytometry. Binding of the 2F5, 2A10, and 2C6 anti-PSMA human monoclonal antibodies was assessed by incubating the LNCaP cells with the anti-PSMA human monoclonal antibodies at different concentrations. The cells were washed and binding was detected with a FITC-labeled anti-human IgG Ab. Flow cytometric analyses were performed using a FACScan flow cytometry (Becton Dickinson, San Jose, Calif.). The human anti-PSMA monoclonal antibody 7F12 (as described in PCT Publication WO 03/064606) was used as a positive control and a non-PSMA specific isotype control antibody was used as a negative control. The results are depicted in FIG. 9.

Molecule	binding to immunopurified PSMA [1]	binding to PSMA-expressing LNCaP cells [2]
B1	bound with high specificity	bound specifically; also recorded: binds the cell surface of PSMA-expressing LNCaP cells
B2	detectable but only low level binding	bound specifically; also recorded: binds the cell surface of PSMA-expressing LNCaP cells
B3	detectable but only low level binding	

Source: US20090297438A1, “Human Monoclonal Antibodies to Prostate Specific Membrane Antigen (PSMA)” (priority 2005, published 2009)
